The source of these data is patent US11485776B2, “Antibodies against infectious diseases” (priority 2015, dated 2022).

The target of one data set is T1, hENO1 (Homo sapiens, UniProt P06733).
T1 construct: His; made in house; host or cells: E. coli BL21 (by 'in the same way')
Nature of the data set: Western blot on purified human ENO1 protein. The class given is binding. The source says:
Lane M contained protein markers.
The ImageQuant LAS4500 was used for ECL intensity detection.

Data set [1] has as its target T2, alpha-enolase on the surface of C. albicans (Candida albicans, UniProt P30575).
T2 construct: endogenous in cells; host or cells: C. albicans SC 5314 and clinical isolates CA6-17, CA7-26, CA7-3, CA10-50, CA7-30, CA10-65
In words: Flow cytometry of C. albicans, FITC binding. The class given is cell-based, C. albicans SC 5314. Conditions: 100 ug antibody, 10^5 cells, 2 hours at 37° C. On the procedure: (§1) (A) C. albicans SC 5314 were cultured overnight and 10^5 cells were added to each tube with 2 ml YPD medium. Experiment antibodies were added to each tube (1) Anti-CaENO1 IgY (100 ug) (2) Control scFv (100 ug) (3) scFv CaS1 (100 ug) (4) PBS, and cultured 2 hours at 37° C. in an incubator. Goat anti-chicken light chain (1:1500) antibody was used as detected antibody; FITC donkey anti-goat antibody (1:1000) was used as developed antibody to detect the reaction. Propidium iodide (PI) (1 ug/ml) was used to detect cell death. (B) Quantification of flow cytometry result in the panel A (*, p<0.05;**, p<0.01). Flow cytometry is represented as mean±SD of the duplicated experiment.
(§2) Anti-CaENO1 IgY, scFv CaS1 and control scFv were contacted with C. albicans and then subjected to flow cytometry assay. Anti-CaENO1 IgY, scFv CaS1 and control scFv show 89.7+/−2.8%, 46.64+/−3.1% and 23+/−2.3% FITC fluorescence reaction (FIG. 7A), representing that the antibody can bind to alpha-enolase on the surface of C. albicans.
(In general: Flow cytometry measures light scatter and fluorescence of single cells or particles in a stream.)

Data set [2] deals with ENO1 proteins on Candida spp. (C. krusei). Type of data set: binding. The source says: (§3) (A) The total cell lysates of 5 Candida spp. were visualized on SDS-PAGE (left). After transferred onto the NC membranes, they were probed with purified anti-CaENO1 from 7th immunized chicken (1:3,000) (middle), or with CaS1 scFv (right) as described in material and methods. Lanes 1-6 in (A) contained the total cell lysates of C. albicans, C. krusei, C. tropicalis, C. parapsilosis and C. glabrate and purified recombinant CaENO1, respectively. […] (C) Total cell lysate from FLU^R and FLU^s and C. tropicalis (lanes 1-5 represent CT6-29, CT11-52, CT6-50, CT12-54, BCRC20520, respectively) by SDS-PAGE (left) and probed with CaS1 scFv by Western blot (right). (D) The purified ENO1 proteins of C. albicans, S. pneumonia, S. aureus, mouse and human were visualized on SDS-PAGE (left). After transferred onto the NC membranes, they were probed with purified CaS1 scFv (right) as described. Lane M contained protein markers.
(§4) To detect the presence of ENO1 proteins, the purified recombinant ENO1 protein or cell lysates of five Candida spp were subjected to SDS-PAGE analysis, transferred onto nitrocellulose membranes (Amersham Biosciences, UK) and then blocked with 5% skim milk in TBST for 1 hr. The anti-CaENO1 IgY from chicken after 7th immunization (1:3,000) or purified CaS1 scFv antibody (1 μg/ml) were added and incubated for 1 hr at room temperature. After vigorous washings, horseradish peroxidase (HRP)-conjugated polyclonal donkey anti-chicken IgY antibodies (1:3,000) (Bethyl Laboratories, Montgomery, Tex., USA) were added and incubated for an additional 1 hr for detecting the bound IgY antibodies. However, goat anti-chicken light chain antibodies (1:3,000) (Bethyl Laboratories, Montgomery, Tex., USA), followed by HRP-conjugated donkey anti-goat IgG antibodies (Jackson ImmunoResearch, USA) were used for detecting the bound scFv antibodies. After washings as above, the membranes were developed with diaminobenzidine (DAB) or ECL substrate. The ImageQuant LAS4500 was used for ECL intensity detection.
(§5) This CaS1 scFv was evaluated for its binding activity to different species of Candida. Five common strains of Candida were obtained, total lysate of five species Candida were analyzed on SDS-PAGE (FIG. 6A left) and subsequent Western blot.

Data set [3] deals with ENO1 proteins on Candida spp. (C. glabrate). Type of data set: binding.
From the text: as §3, §4, §5

The subject of data set [4] is ENO1 proteins on Candida spp. (C. parapsilosis). Type of data set: binding.
From the text: as §3, §4, §5

Data set [5] relates to ENO1 proteins on Candida spp. (C. tropicalis). Type of data set: binding.
From the text: as §3, §4, §5

The target of data set [6] is T3, CaENO1 binding to plasminogen (Candida albicans, UniProt P30575).
T3 construct: using full-length CaENO1 (1323 bp) as template; made in house; host or cells: E. coli BL21
In words: Fibrin matrix-gel degradation with CaENO1 on Ni sepharose. Conditions: antibody 100 ug; for Binding of CaENO1 to plasminogen: CaENO1 on Ni sepharose. Type of data set: biochemical, C. albicans. On the procedure:
Each experimental group of CaENO1 with CaS1 scFv were dropped onto gel and incubated at room temperature for 2 days to observe gel degrade result. (1) plasminogen (1 ug/ul) only. (2) CaENO1 on Ni Sepharose™ (10 ug). (3) CaENO1 on Sepharose™ (10 ug) with plasminogen (20 ug).
Each experimental group of CaENO1 with CaS1 scFv were dropped onto gel and incubated at room temperature for 2 days to observe gel degrade result an the results are shown in FIG. 15.

The subject of the next data set is C. albicans. Nature of the data set: Flow cytometry of C. albicans, propidium iodide cell death. The class given is cell-based, C. albicans SC 5314. Conditions: 100 ug antibody, 10^5 cells, 2 hours at 37° C. On the procedure: as §1, §2
The target in data set [7] is T4, ENO1 protein expressed in cell lysates of C. albicans (Candida albicans, UniProt P30575).
T4 construct: endogenous in cells; host or cells: C. albicans SC 5314 and clinical isolates CA6-17, CA7-26, CA7-3, CA10-50, CA7-30, CA10-65
Nature of the data set: Western blot on total cell lysate of C. albicans. Type of data set: binding.
From the text: as §3, with “markers. […]” for “markers.”
as §5
Background: In western blotting, separated proteins are transferred to a membrane and probed.

Entries after “also recorded” stand apart in the source; their conditions may differ.

T3 sequence (P30575 whole entry): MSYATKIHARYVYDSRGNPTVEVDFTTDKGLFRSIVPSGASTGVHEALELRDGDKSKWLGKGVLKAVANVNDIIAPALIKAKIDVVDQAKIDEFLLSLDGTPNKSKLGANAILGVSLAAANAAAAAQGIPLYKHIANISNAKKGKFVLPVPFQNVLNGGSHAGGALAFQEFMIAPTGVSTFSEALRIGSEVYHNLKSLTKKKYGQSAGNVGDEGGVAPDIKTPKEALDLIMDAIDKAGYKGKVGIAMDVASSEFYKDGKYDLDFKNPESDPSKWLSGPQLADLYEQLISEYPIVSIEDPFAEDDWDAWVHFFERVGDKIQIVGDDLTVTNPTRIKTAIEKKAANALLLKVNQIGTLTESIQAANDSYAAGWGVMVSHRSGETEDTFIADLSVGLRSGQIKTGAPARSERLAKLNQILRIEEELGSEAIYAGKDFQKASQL
T4 sequence (P30575 whole entry): as above
T1 sequence (P06733 whole entry): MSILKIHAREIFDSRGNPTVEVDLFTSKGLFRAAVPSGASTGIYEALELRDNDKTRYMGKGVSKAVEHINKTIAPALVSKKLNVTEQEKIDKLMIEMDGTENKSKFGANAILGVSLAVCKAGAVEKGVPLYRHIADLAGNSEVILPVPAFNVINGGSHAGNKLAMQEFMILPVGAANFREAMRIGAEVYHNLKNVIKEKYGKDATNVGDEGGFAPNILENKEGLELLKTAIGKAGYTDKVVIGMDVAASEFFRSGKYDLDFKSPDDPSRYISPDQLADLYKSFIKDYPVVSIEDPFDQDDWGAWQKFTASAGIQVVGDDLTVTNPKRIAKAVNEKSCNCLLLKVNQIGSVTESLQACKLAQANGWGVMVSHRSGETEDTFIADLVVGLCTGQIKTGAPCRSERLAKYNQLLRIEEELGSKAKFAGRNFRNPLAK
T2 sequence (P30575 whole entry): as the sequence (P30575 whole entry) above

B1: CaS1 scFv: anti-CaENO1 scFv monoclonal antibody from chicken phage library; light chain SEQ ID NO:11, heavy chain SEQ ID NO:12 (antibody, V domains shown)
VH: TVTLDESGGGLQTPRGALSLVCKASGFTFIDYGMQWVRQAPGKGLEWVAGIGSSGSSTNYGAAVKGRATISRDDGQSTVRLQLNNLRAEDTGTYYCAKSAGGYCVNGAGCNGGSIDAWGHGTEVIVSS
VL: ALTQPSSVSANLGGTVKITCSGGSGSYGWYQQKSPGSAPVTVIYSNNQRPSNIPSRFSGSPSGSTGTLTITGVQADDEAVYFCGSRDSSYVGVFGAGTTLTVL
modifications: scFv linker; amino acid sequence comprised in a heavy chain of an anti-CaENO1 scFv monoclonal antibody (CaS1); amino acid sequence comprised in a light chain of an anti-CaENO1 scFv monoclonal antibody (CaS1)
Take B1: the “Binding to purified hENO1 (Western blot)” value in the data set with hENO1 is reported as “very little; also recorded: weak cross reactivity”. Further, in [1], the FITC fluorescence reaction is recorded as 46.64+/−3.1%. Besides, the “Binding to ENO1 in total cell lysate of C. krusei (Western blot)” value in [2] is on record as “cannot react”. Besides, in data set [3], the “Binding to ENO1 in total cell lysate of C. glabrate (Western blot)” value is recorded as “cannot react”; the “Binding to fluconazole resistance and susceptible C. glabrate from clinic (Western blot)” value is on record as “not”. Moreover, in [4], the “Binding to ENO1 in total cell lysate of C. parapsilosis (Western blot)” value is given as “cannot react”; the “Binding to fluconazole resistance and susceptible C. parapsilosis from clinic (Western blot)” value is “not”. Also, in data set [5], the “Binding to ENO1 in total cell lysate of C. tropicalis (Western blot)” value was “specifically recognized; also recorded: reacted”; the “Binding to fluconazole resistance and susceptible C. tropicalis from clinic (Western blot)” value is reported as “binds; also recorded: can bind”. Further, the “Fibrinolytic activity of CaENO1 on Sepharose with plasminogen” value in [6] (CaENO1 10 ug, plasminogen 20 ug, 2 days) is “no fibrinolytic activity”. Besides, the “Binding of CaENO1 to plasminogen” value in data set [6] is listed as “significantly reduced”. Also, in [6] (listed as CaS1), the “Binding of CaENO1 to plasminogen” value is on record as “inhibits”. Also, the “mortality rate of C. albicans (propidium iodide)” value in the data set with C. albicans is 37+/−0.8%. The “Binding to fluconazole resistance and susceptible C. albicans from clinic (Western blot)” value in data set [7] is “binds; also recorded: can bind”. For the same molecule, the “Binding to ENO1 in total cell lysate of C. albicans (Western blot)” value in data set [7] (C. albicans SC 5314 lysate) is “specifically recognized; also recorded: reacted”.
